Laboratory results published in patent US12630600B2 (MEDIMMUNE LIMITED, priority 2022, dated 2026).
Starred links: 1 amine or outer side, 2 acyl side, 3 side chain; linkers in the order of their positions; H or OH if unused. Non-standard residues stand in square brackets, D forms with d. Groups on a side chain read outwards from the residue. No end group written: not given here. *: point of attachment. C18 diacid = O=C(O)CCCCCCCCCCCCCCCCC(=O)*; γGlu = O=C(O)[C@H](CCC(=O)[*:2])N[*:1]; αMeF = C[C@](N)(Cc1ccccc1)C(=O)O; AEEA = NCCOCCOCC(=O)O; Aib = CC(C)(N)C(=O)O

B1: Peptide 20 (peptide)
peptide: H[Aib]HGS[αMeF]TSDVSK[αMeF]LDSK([AEEA-AEEA-γGlu-γGlu-C18 diacid])AARD[αMeF]VE[Aib]IANT-NH2
modifications: N-terminus assumed
SMILES: CC[C@H](C)[C@H](NC(=O)C(C)(C)NC(=O)[C@H](CCC(=O)O)NC(=O)[C@@H](NC(=O)[C@](C)(Cc1ccccc1)NC(=O)[C@H](CC(=O)O)NC(=O)[C@H](CCCNC(=N)N)NC(=O)[C@H](C)NC(=O)[C@H](C)NC(=O)[C@H](CCCCNC(=O)COCCOCCNC(=O)COCCOCCNC(=O)CC[C@H](NC(=O)CC[C@H](NC(=O)CCCCCCCCCCCCCCCCC(=O)O)C(=O)O)C(=O)O)NC(=O)[C@H](CO)NC(=O)[C@H](CC(=O)O)NC(=O)[C@H](CC(C)C)NC(=O)[C@](C)(Cc1ccccc1)NC(=O)[C@H](CCCCN)NC(=O)[C@H](CO)NC(=O)[C@@H](NC(=O)[C@H](CC(=O)O)NC(=O)[C@H](CO)NC(=O)[C@@H](NC(=O)[C@](C)(Cc1ccccc1)NC(=O)[C@H](CO)NC(=O)CNC(=O)[C@H](Cc1c[nH]cn1)NC(=O)C(C)(C)NC(=O)[C@@H](N)Cc1c[nH]cn1)[C@@H](C)O)C(C)C)C(C)C)C(=O)N[C@@H](C)C(=O)N[C@@H](CC(N)=O)C(=O)N[C@H](C(N)=O)[C@@H](C)O
B2: Peptide 140 (peptide)
peptide: H[Aib]QGTFTSDVSK[αMeF]LDTK([AEEA-AEEA-γGlu-C18 diacid])RAQDFVRWLLE[Aib]G-OH
modifications: N-terminus assumed
SMILES: CC(C)C[C@H](NC(=O)[C@H](Cc1c[nH]c2ccccc12)NC(=O)[C@H](CCCNC(=N)N)NC(=O)[C@@H](NC(=O)[C@H](Cc1ccccc1)NC(=O)[C@H](CC(=O)O)NC(=O)[C@H](CCC(N)=O)NC(=O)[C@H](C)NC(=O)[C@H](CCCNC(=N)N)NC(=O)[C@H](CCCCNC(=O)COCCOCCNC(=O)COCCOCCNC(=O)CC[C@H](NC(=O)CCCCCCCCCCCCCCCCC(=O)O)C(=O)O)NC(=O)[C@@H](NC(=O)[C@H](CC(=O)O)NC(=O)[C@H](CC(C)C)NC(=O)[C@](C)(Cc1ccccc1)NC(=O)[C@H](CCCCN)NC(=O)[C@H](CO)NC(=O)[C@@H](NC(=O)[C@H](CC(=O)O)NC(=O)[C@H](CO)NC(=O)[C@@H](NC(=O)[C@H](Cc1ccccc1)NC(=O)[C@@H](NC(=O)CNC(=O)[C@H](CCC(N)=O)NC(=O)C(C)(C)NC(=O)[C@@H](N)Cc1c[nH]cn1)[C@@H](C)O)[C@@H](C)O)C(C)C)[C@@H](C)O)C(C)C)C(=O)N[C@@H](CC(C)C)C(=O)N[C@@H](CCC(=O)O)C(=O)NC(C)(C)C(=O)NCC(=O)O
B3: Peptide 36 (peptide)
peptide: H[Aib]QGTFTSDVSK[αMeF]LDSK([AEEA-AEEA-γGlu-C18 diacid])RARDFVQWLL[Aib]T-OH
modifications: N-terminus assumed
SMILES: CC(C)C[C@H](NC(=O)[C@H](Cc1c[nH]c2ccccc12)NC(=O)[C@H](CCC(N)=O)NC(=O)[C@@H](NC(=O)[C@H](Cc1ccccc1)NC(=O)[C@H](CC(=O)O)NC(=O)[C@H](CCCNC(=N)N)NC(=O)[C@H](C)NC(=O)[C@H](CCCNC(=N)N)NC(=O)[C@H](CCCCNC(=O)COCCOCCNC(=O)COCCOCCNC(=O)CC[C@H](NC(=O)CCCCCCCCCCCCCCCCC(=O)O)C(=O)O)NC(=O)[C@H](CO)NC(=O)[C@H](CC(=O)O)NC(=O)[C@H](CC(C)C)NC(=O)[C@](C)(Cc1ccccc1)NC(=O)[C@H](CCCCN)NC(=O)[C@H](CO)NC(=O)[C@@H](NC(=O)[C@H](CC(=O)O)NC(=O)[C@H](CO)NC(=O)[C@@H](NC(=O)[C@H](Cc1ccccc1)NC(=O)[C@@H](NC(=O)CNC(=O)[C@H](CCC(N)=O)NC(=O)C(C)(C)NC(=O)[C@@H](N)Cc1c[nH]cn1)[C@@H](C)O)[C@@H](C)O)C(C)C)C(C)C)C(=O)N[C@@H](CC(C)C)C(=O)NC(C)(C)C(=O)N[C@H](C(=O)O)[C@@H](C)O
B4: Peptide 37 (peptide)
peptide: H[Aib]QGTFTSDVSK[αMeF]LDSK([AEEA-AEEA-γGlu-C18 diacid])RAEDFVQWLL[Aib]T-OH
modifications: N-terminus assumed
SMILES: CC(C)C[C@H](NC(=O)[C@H](Cc1c[nH]c2ccccc12)NC(=O)[C@H](CCC(N)=O)NC(=O)[C@@H](NC(=O)[C@H](Cc1ccccc1)NC(=O)[C@H](CC(=O)O)NC(=O)[C@H](CCC(=O)O)NC(=O)[C@H](C)NC(=O)[C@H](CCCNC(=N)N)NC(=O)[C@H](CCCCNC(=O)COCCOCCNC(=O)COCCOCCNC(=O)CC[C@H](NC(=O)CCCCCCCCCCCCCCCCC(=O)O)C(=O)O)NC(=O)[C@H](CO)NC(=O)[C@H](CC(=O)O)NC(=O)[C@H](CC(C)C)NC(=O)[C@](C)(Cc1ccccc1)NC(=O)[C@H](CCCCN)NC(=O)[C@H](CO)NC(=O)[C@@H](NC(=O)[C@H](CC(=O)O)NC(=O)[C@H](CO)NC(=O)[C@@H](NC(=O)[C@H](Cc1ccccc1)NC(=O)[C@@H](NC(=O)CNC(=O)[C@H](CCC(N)=O)NC(=O)C(C)(C)NC(=O)[C@@H](N)Cc1c[nH]cn1)[C@@H](C)O)[C@@H](C)O)C(C)C)C(C)C)C(=O)N[C@@H](CC(C)C)C(=O)NC(C)(C)C(=O)N[C@H](C(=O)O)[C@@H](C)O
B5: Peptide 38 (peptide)
peptide: H[Aib]QGTFTSDVSK[αMeF]LDSK([AEEA-AEEA-γGlu-C18 diacid])RAQDFVEWLL[Aib]T-OH
modifications: N-terminus assumed
SMILES: CC(C)C[C@H](NC(=O)[C@H](Cc1c[nH]c2ccccc12)NC(=O)[C@H](CCC(=O)O)NC(=O)[C@@H](NC(=O)[C@H](Cc1ccccc1)NC(=O)[C@H](CC(=O)O)NC(=O)[C@H](CCC(N)=O)NC(=O)[C@H](C)NC(=O)[C@H](CCCNC(=N)N)NC(=O)[C@H](CCCCNC(=O)COCCOCCNC(=O)COCCOCCNC(=O)CC[C@H](NC(=O)CCCCCCCCCCCCCCCCC(=O)O)C(=O)O)NC(=O)[C@H](CO)NC(=O)[C@H](CC(=O)O)NC(=O)[C@H](CC(C)C)NC(=O)[C@](C)(Cc1ccccc1)NC(=O)[C@H](CCCCN)NC(=O)[C@H](CO)NC(=O)[C@@H](NC(=O)[C@H](CC(=O)O)NC(=O)[C@H](CO)NC(=O)[C@@H](NC(=O)[C@H](Cc1ccccc1)NC(=O)[C@@H](NC(=O)CNC(=O)[C@H](CCC(N)=O)NC(=O)C(C)(C)NC(=O)[C@@H](N)Cc1c[nH]cn1)[C@@H](C)O)[C@@H](C)O)C(C)C)C(C)C)C(=O)N[C@@H](CC(C)C)C(=O)NC(C)(C)C(=O)N[C@H](C(=O)O)[C@@H](C)O
B6: Peptide 34 (peptide)
peptide: H[Aib]QGTFTSDVSK[αMeF]LDSK([AEEA-AEEA-γGlu-C18 diacid])RAQDFVQWLL[Aib]E-OH
modifications: N-terminus assumed
SMILES: CC(C)C[C@H](NC(=O)[C@H](Cc1c[nH]c2ccccc12)NC(=O)[C@H](CCC(N)=O)NC(=O)[C@@H](NC(=O)[C@H](Cc1ccccc1)NC(=O)[C@H](CC(=O)O)NC(=O)[C@H](CCC(N)=O)NC(=O)[C@H](C)NC(=O)[C@H](CCCNC(=N)N)NC(=O)[C@H](CCCCNC(=O)COCCOCCNC(=O)COCCOCCNC(=O)CC[C@H](NC(=O)CCCCCCCCCCCCCCCCC(=O)O)C(=O)O)NC(=O)[C@H](CO)NC(=O)[C@H](CC(=O)O)NC(=O)[C@H](CC(C)C)NC(=O)[C@](C)(Cc1ccccc1)NC(=O)[C@H](CCCCN)NC(=O)[C@H](CO)NC(=O)[C@@H](NC(=O)[C@H](CC(=O)O)NC(=O)[C@H](CO)NC(=O)[C@@H](NC(=O)[C@H](Cc1ccccc1)NC(=O)[C@@H](NC(=O)CNC(=O)[C@H](CCC(N)=O)NC(=O)C(C)(C)NC(=O)[C@@H](N)Cc1c[nH]cn1)[C@@H](C)O)[C@@H](C)O)C(C)C)C(C)C)C(=O)N[C@@H](CC(C)C)C(=O)NC(C)(C)C(=O)N[C@@H](CCC(=O)O)C(=O)O
B7: Peptide 39 (peptide)
peptide: H[Aib]QGTFTSDVSK[αMeF]LDSK([AEEA-AEEA-γGlu-C18 diacid])RAQDFVRWLL[Aib]TE-OH
modifications: N-terminus assumed
SMILES: CC(C)C[C@H](NC(=O)[C@H](Cc1c[nH]c2ccccc12)NC(=O)[C@H](CCCNC(=N)N)NC(=O)[C@@H](NC(=O)[C@H](Cc1ccccc1)NC(=O)[C@H](CC(=O)O)NC(=O)[C@H](CCC(N)=O)NC(=O)[C@H](C)NC(=O)[C@H](CCCNC(=N)N)NC(=O)[C@H](CCCCNC(=O)COCCOCCNC(=O)COCCOCCNC(=O)CC[C@H](NC(=O)CCCCCCCCCCCCCCCCC(=O)O)C(=O)O)NC(=O)[C@H](CO)NC(=O)[C@H](CC(=O)O)NC(=O)[C@H](CC(C)C)NC(=O)[C@](C)(Cc1ccccc1)NC(=O)[C@H](CCCCN)NC(=O)[C@H](CO)NC(=O)[C@@H](NC(=O)[C@H](CC(=O)O)NC(=O)[C@H](CO)NC(=O)[C@@H](NC(=O)[C@H](Cc1ccccc1)NC(=O)[C@@H](NC(=O)CNC(=O)[C@H](CCC(N)=O)NC(=O)C(C)(C)NC(=O)[C@@H](N)Cc1c[nH]cn1)[C@@H](C)O)[C@@H](C)O)C(C)C)C(C)C)C(=O)N[C@@H](CC(C)C)C(=O)NC(C)(C)C(=O)N[C@H](C(=O)N[C@@H](CCC(=O)O)C(=O)O)[C@@H](C)O
B8: Peptide 33 (peptide)
peptide: H[Aib]QGTFTSDVSK[αMeF]LDSK([AEEA-AEEA-γGlu-C18 diacid])RAQDFVQWLE[Aib]T-OH
modifications: N-terminus assumed
SMILES: CC(C)C[C@H](NC(=O)[C@H](Cc1c[nH]c2ccccc12)NC(=O)[C@H](CCC(N)=O)NC(=O)[C@@H](NC(=O)[C@H](Cc1ccccc1)NC(=O)[C@H](CC(=O)O)NC(=O)[C@H](CCC(N)=O)NC(=O)[C@H](C)NC(=O)[C@H](CCCNC(=N)N)NC(=O)[C@H](CCCCNC(=O)COCCOCCNC(=O)COCCOCCNC(=O)CC[C@H](NC(=O)CCCCCCCCCCCCCCCCC(=O)O)C(=O)O)NC(=O)[C@H](CO)NC(=O)[C@H](CC(=O)O)NC(=O)[C@H](CC(C)C)NC(=O)[C@](C)(Cc1ccccc1)NC(=O)[C@H](CCCCN)NC(=O)[C@H](CO)NC(=O)[C@@H](NC(=O)[C@H](CC(=O)O)NC(=O)[C@H](CO)NC(=O)[C@@H](NC(=O)[C@H](Cc1ccccc1)NC(=O)[C@@H](NC(=O)CNC(=O)[C@H](CCC(N)=O)NC(=O)C(C)(C)NC(=O)[C@@H](N)Cc1c[nH]cn1)[C@@H](C)O)[C@@H](C)O)C(C)C)C(C)C)C(=O)N[C@@H](CCC(=O)O)C(=O)NC(C)(C)C(=O)N[C@H](C(=O)O)[C@@H](C)O

target: human GLP-1 receptor (human, UniProt P43220); test: cell-based or functional assay

| cAMP production, hGLP-1R EC50 (pM) | Binder |
| --- | --- |
| 152 pM | B1 |
| 22.7 pM | B2 |

target: human GLP-1 receptor (human, UniProt P43220); test: cell-based or functional assay; remark: another data set of the same source

| cAMP production EC50 | Binder |
| --- | --- |
| 0.0431 nM | B3 |
| 0.0686 nM | B4 |
| 0.0756 nM | B5 |
| 0.0824 nM | B6 |
| 0.0761 nM | B7 |
| 0.213 nM | B8 |

target: human glucagon receptor (human, UniProt P47871); test: cell-based or functional assay

| cAMP production EC50 | Binder |
| --- | --- |
| 0.278 nM | B3 |
| 2.75 nM | B4 |
| 0.441 nM | B5 |
| 0.161 nM | B6 |
| 0.194 nM | B7 |
| 0.548 nM | B8 |
